Test results: patent US9963688B2, “Heavy metal resistant esterase” (AMERICAN UNIVERSITY OF CAIRO, priority 2013, dated 2018)
Several values for one entry are separate records, joined by “and”; a condition that tells them apart may be missing. Equal values may be shown once.

How the values were obtained:
Type in all cases: biochemical
[1] = Effect of NaCl concentration on EstATII activity; conditions: for Relative Activity: absence of NaCl defined as 100%
Method: (§1) Enzyme activity was determined by measuring the formation of p-nitrophenol (pNP) from the enzymatic hydrolysis of the p-nitrophenyl ester; p-nitrophenyl butyrate (Sigma-Aldrich). The reaction mixture contained p-nitrophenyl butyrate (pNPB) to a final concentration 0.1 mM and 50 mM Tris-HCl pH=8. In this study, the standard reaction was conducted at 65° C., initiated by the addition of EstATII and terminated by the addition of 10% SDS. Measurements were done at 410 nm using UV-spectrophotometer (Ultrospec 3100 pro, Amersham Biosciences) unless stated otherwise^20. All experiments were performed in triplicates. Substrate specificity of EstATII was determined using p-nitrophenol esters with varying side chain length. Short-chain fatty acid esters used were PNP-acetate (C2), PNP-butyrate (C4) and PNP-valerate (C5) and long-chain fatty acid esters used were PNP-decanoate (C10), PNP-dodecanoate C12, PNP-myristate (C14) and PNP-palmitate (C16). The optimum temperature for the activity of EstATII was determined at a temperature range 30-80° C. The optimum pH for the activity of EstATII was measured at a pH range (3-9.5) using the following buffers: 50 mM sodium acetate (pH 3-5.5), 50 mM sodium phosphate (pH 6, 7.5) and 50 mM Tris-HCL (pH 7.5-9.5). Formation of pNP was measured at 348 nm (the pH-independent isosbestic wavelength of pNP)^21. The effect of NaCl concentration on enzyme activity was measured at different NaCl concentrations (0-4.5 M) under standard assay conditions. To assess the effect of metal ions on enzyme activity, cations were added to a final concentration of 1 mM, and relative activity measured at the above-described standard conditions. The effect of detergents (at final concentrations 0.1 and 1%) and inhibitors (final concentration 1 mM) on enzyme activity was tested at the above-described standard assay conditions.

[2] = Effect of detergents, reducing and modifying agents on EstATII activity; conditions: standard assay conditions
Method: as §1

[3] = Effect of pH on EstATII esterase activity (pNP formation measured at 348 nm)
Method: as §1

[4] = Substrate specificity of EstATII
Method: as §1

[5] = Effect of temperature on EstATII esterase activity (p-nitrophenyl butyrate hydrolysis)
Method: as §1

[6] = Effect of metal ions on EstATII activity
Method: as §1

[7] = cation 1 mM, standard conditions

B1: EstATII: novel esterase from the lower convective layer of the Atlantis II brine pool, Red Sea; 314 amino acids, HSL family (protein)
chain: MSRYVDELYRNPGQPGLRALLRGMLKLLFRGLIRPPVPFAVQALVLRLLTLGMPLARGVTRSTEQIAGRPCMWHRPAAGGNGRVLLYLHGGAFVIGSPQTHRGICSALASRGQFDVCALDYRLAPAHPAPAACDDAVAAYQALLQRGYAPAQITLIGDSAGGNLVLVTAQKLAALKLPLPASLVCFSPVTDMTAEQLHAPAAGDPLLHPSWLDSARDAYCPAGLDRADPMVSPLFGQLKGLPPLLLQVGEDEVLLNDSLRLAEAARAADVAVRLERYEDLWHVFQAHAGLLHSADAALQRVVDFVNSAQTDSVS
Relative Activity ([1]; 0.5M Sodium Chloride): 102.2 ± 2%
Relative Activity ([1]; 1M Sodium Chloride): 99.9 ± 0.5%
Relative Activity ([1]; 1.5M Sodium Chloride): 120 ± 1%
Relative Activity ([1]; 2M Sodium Chloride): 122.9 ± 1%
Relative Activity ([1]; 2.5M Sodium Chloride): 102.4 ± 1.8%
Relative Activity ([1]; 3M Sodium Chloride): 73.8 ± 3.8%
Relative Activity ([1]; 3.5M Sodium Chloride): 65.3 ± 4.6%
Relative Activity ([1]; 4M Sodium Chloride): 53.8 ± 1%
Relative Activity ([1]; 4.5M Sodium Chloride): 39.7 ± 1.7%
NaCl concentration of highest activity ([1]; range tested 0M-4.5M NaCl): 2 M
Activity ([1]; up to 4M NaCl): > 50%
Enzyme activity ([1]; up to 4.5M NaCl): maintained
Relative Activity ([2]; CTAB 1 mM): 13.1 ± 1.9%
Relative Activity ([2]; DTT 1 mM): 78.9% and 78.9 ± 4.2%
Relative Activity ([2]; SDS 0.1%): 6% and 6.1 ± 0.4%
Relative Activity ([2]; Triton X-100 0.1%): 42.3% and 42.2 ± 1.1%
Relative Activity ([2]; Tween 20 0.1%): 87.5% and 87.5 ± 2.3%
Relative Activity ([2]; Tween 20 1%): 40.1% and 40.1 ± 0.9%
Relative Activity ([2]; Tween 80 1%): 54.5% and 54.5 ± 0.7%
Relative Activity ([2]; β-mercaptoethanol 1 mM): 117.9% and 117.9 ± 0.3%
Relative Activity ([3]; pH 3, 50 mM sodium acetate, pH 8.5 defined as 100%): 0%
Relative Activity ([3]; pH 4, 50 mM sodium acetate, pH 8.5 defined as 100%): 0%
Relative Activity ([3]; pH 5, 50 mM sodium acetate, pH 8.5 defined as 100%): 0%
Relative Activity ([3]; pH 5.5, 50 mM sodium acetate, pH 8.5 defined as 100%): 13.1 ± 0.2%
Relative Activity ([3]; pH 6, 50 mM sodium phosphate, pH 8.5 defined as 100%): 38.5 ± 1.2%
Relative Activity ([3]; pH 6.5, pH 8.5 defined as 100%): 43.2 ± 2%
Relative Activity ([3]; pH 7, pH 8.5 defined as 100%): 81.5 ± 1%
Relative Activity ([3]; pH 7.5 (Na Phosphate), pH 8.5 defined as 100%): 88 ± 1%
Relative Activity ([3]; pH 7.5 (Tris.HCl), pH 8.5 defined as 100%): 66.1 ± 0.2%
Relative Activity ([3]; pH 8, 50 mM Tris-HCl, pH 8.5 defined as 100%): 84.7 ± 1.1%
Relative Activity ([3]; pH 8.5, optimum condition (defined as 100%)): 100 ± 3%
Relative Activity ([3]; pH 9, 50 mM Tris-HCl, pH 8.5 defined as 100%): 60 ± 2%
Activity of the enzyme ([3]; pH lower than 5.5): No activity
Activity of the enzyme ([3]; pH=7-9): > 50%
pH (highest activity) ([3]; range tested pH 3-9): 8.5
Activity towards short-chain fatty acid esters ([4]; C2, C4 and C5 p-nitrophenol esters): active
Activity towards long-chain fatty acid esters ([4]; C10, C12, C14 and C16 p-nitrophenol esters): no activity
Relative Activity ([4]; substrate pNP-acetate (C2)): 100 ± 3%
Relative Activity ([4]; substrate pNP-butyrate (C4)): 61.9 ± 0.8%
Relative Activity ([4]; substrate pNP-decanoate (C10)): 0%
Relative Activity ([4]; substrate pNP-dodecanoate (C12)): 0%
Relative Activity ([4]; substrate pNP-myristate (C14)): 0%
Relative Activity ([4]; substrate pNP-palmitate (C16)): 0%
Relative Activity ([4]; substrate pNP-valerate (C5)): 40.5 ± 1.2%
Relative Activity ([5]; 30 °C, pNPB 0.1 mM, 50 mM Tris-HCl pH 8, 65 °C defined as 100%): 56.3 ± 0.8%
Relative Activity ([5]; 35 °C, 65 °C defined as 100%): 59.9 ± 1%
Relative Activity ([5]; 40 °C, 65 °C defined as 100%): 65.3 ± 1.8%
Relative Activity ([5]; 45 °C, 65 °C defined as 100%): 86.9 ± 0.9%
Relative Activity ([5]; 50 °C, 65 °C defined as 100%): 90.9 ± 2%
Relative Activity ([5]; 55 °C, 65 °C defined as 100%): 93.9 ± 1%
Relative Activity ([5]; 60 °C, 65 °C defined as 100%): 95.9 ± 0.3%
Relative Activity ([5]; 65 °C, optimum condition (defined as 100%)): 100 ± 0.2%
Relative Activity ([5]; 70 °C, 65 °C defined as 100%): 91.6 ± 0.15%
Relative Activity ([5]; 75 °C, 65 °C defined as 100%): 76.7 ± 0.3%
Temp ° C. (apparent optimum temperature) ([5]; range tested 30-80 °C): 65 °C
Activity of the enzyme ([5]; temperatures ranging from 45° C. to 75° C.): > 70%
Relative activity with Ba^2+ [6, 7]: 158% and 158.3 ± 2.2%
Relative activity with Co^2+ [6, 7]: 104% and 104 ± 2%
Relative activity with Cu^2+ [6, 7]: 94.8 ± 0.1%
Relative activity with Fe^3+ [6, 7]: 96.2 ± 0.7%
Relative activity with Hg^2+ [6, 7]: 60.9 ± 0.4%
Relative activity with Mg^2+ [6, 7]: 90.6 ± 3.6%
Relative activity with Mn^2+ [6, 7]: 111% and 111.8 ± 0.1%
Relative activity with Zn^2+ [6, 7]: 85.2 ± 4.4%
Relative activity with Ca^2+ ([6]; cation 1 mM, standard conditions (65 °C, Tris-HCl pH 8, pNPB)): 94.8 ± 3%
Activity with the rest of the metal ions tested ([6]; metal ions other than Barium, Manganese, Cobalt, 1 mM): above 60%
Resistance to inhibition by all metal ions tested ([6]; significantly inhibited = relative activity below 50%): showed resistance to inhibition by all metal ions tested
Effect of EDTA chelation on enzyme activity ([6]; with and without EDTA chelation): not affected
